Source: patent US20240262929A1 (IBIO, published 2024)
One block for each binder: values may come before it.

Key:
[1] = biological target: T1, engineered epitope 2, 29-mer of MUC16 non-shed domain, aglycosylated (aglycosylated (produced synthetically); biotinylated for the Octet assay); assay: binding graphs of FIG. 10 (presumably BLI as for FIG. 5A)
T1 peptide: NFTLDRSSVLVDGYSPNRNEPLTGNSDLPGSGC

[2] = biological target: T2, 230-mer MUC16 shed domain (UniProt Q8WXI7 14164-14393, biotinylated for the Octet assay); assay: as above
T2 construct: domain: 230-mer MUC16 shed domain
T2 sequence: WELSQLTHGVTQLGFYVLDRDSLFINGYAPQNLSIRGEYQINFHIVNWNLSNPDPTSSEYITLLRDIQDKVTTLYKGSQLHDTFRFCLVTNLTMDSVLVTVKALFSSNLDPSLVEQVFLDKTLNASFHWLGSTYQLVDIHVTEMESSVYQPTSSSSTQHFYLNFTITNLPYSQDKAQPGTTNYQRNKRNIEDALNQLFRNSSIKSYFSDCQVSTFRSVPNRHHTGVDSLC

[3] = biological target: T3, MUC16 on OVCAR-3 (MUC16high) and SKOV-3 (MUC16low) ovarian cancer cells (UniProt Q8WXI7 1-14507, limits assumed); assay: cell binding on OVCAR3 cells (FIG. 9A)
T3 construct: whole, on cells; also called MUC16high cells; MUC16low cells

[4] = biological target: T4, engineered epitope 1, 58-mer of MUC16 non-shed domain, glycosylated (N-glycosylated (expressed in mammalian cells, used in glycosylated form); biotinylated for the Octet assay); assay: hybridoma ELISA screen / dose-response (FIG. 8)
T4 peptide: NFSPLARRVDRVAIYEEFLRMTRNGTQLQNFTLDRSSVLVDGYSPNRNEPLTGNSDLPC

[5] = biological target: T5, engineered epitope 1, 58-mer of MUC16 non-shed domain, glycosylated (N-glycosylated (expressed in mammalian cells, used in glycosylated form); biotinylated for the Octet assay); assay: ELISA; table columns appear swapped relative to plotted curves
T5 peptide: T4 peptide

[6] = biological target: T6, engineered epitope 2, 29-mer of MUC16 non-shed domain, aglycosylated (aglycosylated (produced synthetically); biotinylated for the Octet assay); assay: as above
T6 peptide: T1 peptide

[7] = biological target: T5, engineered epitope 1, 58-mer of MUC16 …; assay: ELISA
[8] = biological target: T6, engineered epitope 2, 29-mer of MUC16 …; assay: ELISA
[9] = biological target: T1, engineered epitope 2, 29-mer of MUC16 …; assay: ELISA dose-response (FIG. 3)
[10] = biological target: T4, engineered epitope 1, 58-mer of MUC16 …; assay: ELISA dose-response (FIG. 3)
[11] = biological target: T3, MUC16 on OVCAR-3 (MUC16high) and SKOV-3 …; assay: flow cytometry, hybridoma supernatant on OVCAR-3 or SKOV-3 cells (FIG. 5B)
Experimental: Methods: Hybridoma supernatants were diluted 1:2 into FACS buffer containing OVCAR-3 or SKOV-3 cells and incubated for 30 minutes, then washed once with FACS buffer. 2 ug/mL APC labeled goat anti-mouse Fc secondary antibody diluted in FACS buffer was added to the cells and incubated for 20 minutes, then washed once with FACS buffer. Flow cytometry was performed with 20,000 cells per sample.

[12] = biological target: T2, 230-mer MUC16 shed domain; assay: BLI (Octet), biotinylated 230-mer shed domain on streptavidin biosensor, increasing concentrations of purified antibody
Experimental: Methods: Biotinylated 29-mer engineered epitope, glycosylated 58-mer engineered epitope, 230-mer MUC16 shed domain and 288-mer MUC16 extra-cellular domain were immobilized on a Pall Octet 384-Red streptavidin biosensor. Immobilized biosensor tips were dipped into increasing concentration of purified antibody with a 4 minute association followed by a 3 minute dissociation.

[13] = biological target: T5, engineered epitope 1, 58-mer of MUC16 …; assay: ELISA
[14] = biological target: T6, engineered epitope 2, 29-mer of MUC16 …; assay: ELISA
[15] = biological target: T2, 230-mer MUC16 shed domain; assay: binding graphs of FIG. 7A (presumably BLI as for FIG. 5A)
[16] = biological target: T3, MUC16 on OVCAR-3 (MUC16high) and SKOV-3 …; assay: flow cytometry on MUC16high and MUC16low cells (FIG. 7B)
[17] = biological target: T1, engineered epitope 2, 29-mer of MUC16 …; assay: ELISA dose-response (FIG. 6)
[18] = biological target: T4, engineered epitope 1, 58-mer of MUC16 …; assay: ELISA dose-response (FIG. 6)

binding result [1]: binds
binding result [2]: no binding
binding result [3]: binds
binding result [4]: binds
EC50 [5]: 0.68 nM
EC50 [6]: 3.4 nM
B1: 21G6 anti-MUC16 clone (antibody, V domains shown)
VH: EVQLEESGPGLVKPSQSLSLTCTVTGYSITSDYAWNWIRQFPGNKLEWMGYISYSGSTIYNPSLKSRISITRDTSKNQFFLHLNSVTTEDTATYYCATLGLDYWGQGTTLTVSS
VL: DFVMTQSPSSLAVSVGEKVTMSCKSSQSLLYSSNQKNYLAWYQQKPGQSPKLLIYWASTRGSGVPDRFTGSGSGTDFTLTISSVKAEDLAVYYCQQYHSYRTFGGGTKLEIK
notes: Hybridoma antibody from immunized Balb/c mice; also called clone 21G6

EC50 [7]: 0.51 nM
EC50 [8]: 0.56 nM
binding result [9]: binds
binding result [10]: binds
binding result [11]: binds
binding result [12]: no binding
B2: 1D7 anti-MUC16 clone (antibody, V domains shown)
VH: EVMLVESGGGLVKPGGSLKLSCVASGFTFSSFAMSWVRQTPEKRLEWVAIISSGGGYIYYADSMTGRFTISRDNAKNTLYLQMSSLRSEDTAMYYCARLGGDYDEFYAKDYWGQGTSVTVSS
VL: DIQMTQSSSSFSVSLGDRVTITCKASEDIYNRLAWYQQKPGNAPRLLISGATSLETGVPSRFSGSGSGKDYTLSITSLQTEDVATYYCQQYWSTWTFGGGTKLEIK
notes: Hybridoma antibody from immunized Balb/c mice; Used as purified antibody in BLI and as hybridoma supernatant in flow cytometry; also called clone 1D7

EC50 [13]: 0.19 nM
EC50 [14]: 0.23 nM
binding result [15]: no binding
binding result [16]: binds
binding result [17]: binds
binding result [18]: binds
B3: 8G4 anti-MUC16 clone (antibody, V domains shown)
VH: QIQLVQSGPELKMPGETVKISCKASGYTFTNFGMNWVKQAPGKALKWMGWINTNTGKPTYFEEFKGRFAFSLETSASTAYLQINNLKNEDTATYFCARRWDRSAWFAYWGQGTLVTVSA
VL: QAVVTQESALTTSPGETVTLTCRSSTGAVTTSNYANWVQEKPDHLFTGLIGGTNDRSPGVPARFSGSLIGDKAALTITGAQTEDEAIYFCALWYSNHWVFGGGTKLTVL
notes: Hybridoma antibody from immunized Balb/c mice; also called clone 8G4
